{
  "source": "paper PMC6902050",
  "about": "“OXA-830, a Novel Chromosomally Encoded Extended-Spectrum Class D β-Lactamase in Aeromonas simiae” (Frontiers in Microbiology, 2019)",
  "key": {"[1]": {"system": "CC1(C)S[C@@H]2[C@H](NC(=O)Cc3ccccc3)C(=O)N2[C@H]1C(=O)O", "assay": "initial hydrolysis rates, UV-VIS spectrophotometry, Michaelis-Menten fit", "type": "biochemical, Aeromonas simiae", "details": "10 mM phosphate buffer pH 7.0, 30°C", "source_text": "(§1) initial hydrolysis rates, UV-VIS spectrophotometry, Michaelis-Menten fit on OXA-830"}, "[2]": {"system": "CC1(C)S[C@@H]2[C@H](NC(=O)[C@H](C(=O)O)c3ccsc3)C(=O)N2[C@H]1C(=O)O", "assay": "initial hydrolysis rates, UV-VIS spectrophotometry, Michaelis-Menten fit", "type": "biochemical, Aeromonas simiae", "details": "10 mM phosphate buffer pH 7.0, 30°C", "source_text": "as §1"}, "[3]": {"system": "CC(C)(O/N=C(\\C(=O)N[C@@H]1C(=O)N2C(C(=O)[O-])=C(C[n+]3ccccc3)CS[C@H]12)c1csc(N)n1)C(=O)O", "assay": "initial hydrolysis rates, UV-VIS spectrophotometry, Michaelis-Menten fit", "type": "biochemical, Aeromonas simiae", "details": "10 mM phosphate buffer pH 7.0, 30°C", "source_text": "as §1"}, "[4]": {"system": "Cc1nnc(SCC2=C(C(=O)O)N3C(=O)[C@@H](NC(=O)Cn4cnnn4)[C@H]3SC2)s1", "assay": "initial hydrolysis rates, UV-VIS spectrophotometry, Michaelis-Menten fit", "type": "biochemical, Aeromonas simiae", "details": "10 mM phosphate buffer pH 7.0, 30°C", "source_text": "as §1"}, "[5]": {"system": "CO[C@@]1(NC(=O)Cc2cccs2)C(=O)N2C(C(=O)O)=C(COC(N)=O)CS[C@@H]21", "assay": "initial hydrolysis rates, UV-VIS spectrophotometry, Michaelis-Menten fit", "type": "biochemical, Aeromonas simiae", "details": "10 mM phosphate buffer pH 7.0, 30°C", "source_text": "as §1"}, "[6]": {"system": "Cc1onc(-c2ccccc2Cl)c1C(=O)N[C@@H]1C(=O)N2[C@@H]1SC(C)(C)[C@@H]2C(=O)O", "assay": "initial hydrolysis rates, UV-VIS spectrophotometry, Michaelis-Menten fit", "type": "biochemical, Aeromonas simiae", "details": "10 mM phosphate buffer pH 7.0, 30°C", "source_text": "as §1"}, "[7]": {"system": "CCN1CCN(C(=O)N[C@@H](C(=O)N[C@@H]2C(=O)N3[C@@H]2SC(C)(C)[C@@H]3C(=O)O)c2ccccc2)C(=O)C1=O", "assay": "initial hydrolysis rates, UV-VIS spectrophotometry, Michaelis-Menten fit", "type": "biochemical, Aeromonas simiae", "details": "10 mM phosphate buffer pH 7.0, 30°C", "source_text": "as §1"}, "[8]": {"system": "Cc1onc(-c2ccccc2)c1C(=O)N[C@@H]1C(=O)N2[C@@H]1SC(C)(C)[C@@H]2C(=O)O", "assay": "initial hydrolysis rates, UV-VIS spectrophotometry, Michaelis-Menten fit", "type": "biochemical, Aeromonas simiae", "details": "10 mM phosphate buffer pH 7.0, 30°C", "source_text": "as §1"}, "[9]": {"system": "CC1(C)S[C@@H]2[C@H](NC(=O)[C@H](N)c3ccccc3)C(=O)N2[C@H]1C(=O)O", "assay": "initial hydrolysis rates, UV-VIS spectrophotometry, Michaelis-Menten fit", "type": "biochemical, Aeromonas simiae", "details": "10 mM phosphate buffer pH 7.0, 30°C", "source_text": "as §1"}, "OXA-830": {"target": "T1, OXA-830 (Aeromonas simiae, UniProt A0A5K1KBV9)", "T1 construct": "gene blaOXA; predicted signal peptide cleavage 22/23", "T1 sequence (A0A5K1KBV9 entry or part of it)": "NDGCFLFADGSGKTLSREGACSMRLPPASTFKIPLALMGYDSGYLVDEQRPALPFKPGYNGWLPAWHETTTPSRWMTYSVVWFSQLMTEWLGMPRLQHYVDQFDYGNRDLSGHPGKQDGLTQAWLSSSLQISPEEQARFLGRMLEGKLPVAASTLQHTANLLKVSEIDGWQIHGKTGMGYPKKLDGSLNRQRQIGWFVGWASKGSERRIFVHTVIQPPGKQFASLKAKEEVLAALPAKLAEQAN", "assay": "inhibition of benzylpenicillin hydrolysis, UV-VIS spectrophotometry", "type": "biochemical"}},
  "data": [
    {"compound": "OXA-830 (Aeromonas simiae)", "values": [
      {"measurement": "Km", "setting": "[1]", "value": 540, "unit": "µM"},
      {"measurement": "kcat", "setting": "[1]", "value": 527, "unit": "s⁻¹"},
      {"measurement": "kcat/Km", "setting": "[1]", "value": 980000, "unit": "M⁻¹ s⁻¹"},
      {"measurement": "Km", "setting": "[2]", "value": 208, "unit": "µM"},
      {"measurement": "kcat", "setting": "[2]", "value": 227, "unit": "s⁻¹"},
      {"measurement": "kcat/Km", "setting": "[2]", "value": "1.09e+06", "unit": "M⁻¹ s⁻¹"},
      {"measurement": "Km", "setting": "[3]", "value": 61, "unit": "µM"},
      {"measurement": "kcat", "setting": "[3]", "value": 2.04, "unit": "s⁻¹"},
      {"measurement": "kcat/Km", "setting": "[3]", "value": 33000, "unit": "M⁻¹ s⁻¹"},
      {"measurement": "Km", "setting": "[4]", "value": 975, "unit": "µM"},
      {"measurement": "kcat", "setting": "[4]", "value": 715, "unit": "s⁻¹"},
      {"measurement": "kcat/Km", "setting": "[4]", "value": 730000, "unit": "M⁻¹ s⁻¹"},
      {"measurement": "Km", "setting": "[5]", "value": 76, "unit": "µM"},
      {"measurement": "kcat", "setting": "[5]", "value": 2.79, "unit": "s⁻¹"},
      {"measurement": "kcat/Km", "setting": "[5]", "value": 37000, "unit": "M⁻¹ s⁻¹"},
      {"measurement": "Km", "setting": "[6]", "value": 737, "unit": "µM"},
      {"measurement": "kcat", "setting": "[6]", "value": 1030, "unit": "s⁻¹"},
      {"measurement": "kcat/Km", "setting": "[6]", "value": "1.4e+06", "unit": "M⁻¹ s⁻¹"},
      {"measurement": "Km", "setting": "[7]", "value": 233, "unit": "µM"},
      {"measurement": "kcat", "setting": "[7]", "value": 413, "unit": "s⁻¹"},
      {"measurement": "kcat/Km", "setting": "[7]", "value": "1.77e+06", "unit": "M⁻¹ s⁻¹"},
      {"measurement": "Km", "setting": "[8]", "value": 722, "unit": "µM"},
      {"measurement": "kcat", "setting": "[8]", "value": 1240, "unit": "s⁻¹"},
      {"measurement": "kcat/Km", "setting": "[8]", "value": "1.72e+06", "unit": "M⁻¹ s⁻¹"},
      {"measurement": "Km", "setting": "[9]", "value": 188, "unit": "µM"},
      {"measurement": "kcat", "setting": "[9]", "value": 444, "unit": "s⁻¹"},
      {"measurement": "kcat/Km", "setting": "[9]", "value": "2.36e+06", "unit": "M⁻¹ s⁻¹"}
    ]},
    {"compound": "CC1(C)[C@H](C(=O)O)N2C(=O)C[C@H]2S1(=O)=O", "note": "[sulbactam]", "values": [
      {"measurement": "IC50", "setting": "OXA-830", "value": "50 ± 10", "unit": "nM"}
    ]},
    {"compound": "O=C(O)[C@H]1/C(=C/CO)O[C@@H]2CC(=O)N21", "note": "[clavulanic acid]", "values": [
      {"measurement": "IC50", "setting": "OXA-830", "value": "260 ± 20", "unit": "nM"}
    ]},
    {"compound": "C[C@]1(Cn2ccnn2)[C@H](C(=O)O)N2C(=O)C[C@H]2S1(=O)=O", "note": "[tazobactam]", "values": [
      {"measurement": "IC50", "setting": "OXA-830", "value": "70 ± 20", "unit": "nM"}
    ]}
  ]
}
